T1: human VEGFA-121 (VEGF-A-121-His) (human, UniProt P15692-9 27-147)
T1 construct: Captured on the chip through an anti-His antibody; not shown: His tag
T1 sequence (looked up): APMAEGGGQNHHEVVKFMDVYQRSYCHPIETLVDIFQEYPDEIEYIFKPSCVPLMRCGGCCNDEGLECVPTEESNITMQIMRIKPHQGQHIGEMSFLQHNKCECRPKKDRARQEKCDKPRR

T2: human Ang-2-RBD-Fc (human, UniProt O15123 275-496, limits assumed)
T2 construct: domain: RBD; Analyte in solution; not shown: Fc part
T2 sequence (looked up): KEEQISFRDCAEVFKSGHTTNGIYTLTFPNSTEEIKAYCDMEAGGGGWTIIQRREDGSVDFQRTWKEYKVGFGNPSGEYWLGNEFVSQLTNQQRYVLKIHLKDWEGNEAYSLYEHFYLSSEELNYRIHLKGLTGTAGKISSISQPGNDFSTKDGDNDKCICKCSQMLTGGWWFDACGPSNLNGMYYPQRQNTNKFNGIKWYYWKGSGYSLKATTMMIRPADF


Assays:
[1] = molecular target: T1, human VEGFA-121 (VEGF-A-121-His); experiment: SPR (Biacore T200), VEGF-A-121-His captured by anti-His antibody, bispecific antibody as analyte, 1:1 Langmuir
Method: Around 10000 (RU) of anti His antibody (1 μg/ml anti His antibody; Order Code: 28995056; GE Healthcare Bio-Sciences AB, Sweden) were coupled on a Series S CM5 chip (GE Healthcare BR-1005-30) at pH 5.0 by using an amine coupling kit supplied by the GE Healthcare. HBS-N (10 mM HEPES, 150 mM NaCl pH 7.4, GE Healthcare) was used as running buffer during the immobilization procedure. For the following kinetic characterization, sample and running buffer was PBS-T (10 mM phosphate buffered saline including 0.05% Tween20) at pH 7.4. The flow cell was set to 25° C.—and the sample block set to 12° C.—and primed with running buffer twice prior to kinetic characterization.
(§1) Binding of the multispecific antibodies to their respective target antigens, i.e. ANG2 and VEGF, was assessed by Biacore® as described in the general methods section.

[2] = molecular target: T2, human Ang-2-RBD-Fc; experiment: SPR (Biacore T200), bispecific antibody captured by anti-human F(ab')2, Ang2-RBD-Fc as analyte, 1:1 Langmuir
Method: (§2) Binding of indicated antibodies to human Ang-2-RBD-Fc was investigated by surface plasmon resonance using a BIACORE® T200 instrument (GE Healthcare). Around 8000 (RU) of goat anti human F(ab′)₂ (10 μg/ml anti human F(ab)′₂; Order Code: 28958325; GE Healthcare Bio-Sciences AB, Sweden) were coupled on a Series S CMS chip (GE Healthcare BR-1005-30) at pH 5.0 by using an amine coupling kit supplied by the GE Healthcare. HBS-N (10 mM HEPES, 150 mM NaCl pH 7.4, GE Healthcare) was used as running buffer during the immobilization procedure. For the following kinetic characterization, sample and running buffer was PBS-T (10 mM phosphate buffered saline including 0.05% Tween20) at pH 7.4. The flow cell was set to 25° C.—and the sample block set to 12° C.—and primed with running buffer twice prior to kinetic characterization.
(§3) The bispecific antibody was captured by injecting a 5 nM solution for 25 sec at a flow of 5 μl/min. The association was measured by injection of human Ang2-RBD-Fc in various concentrations in solution for 120 sec at a flow of 30 μl/min starting with 100 nM in 1:3 serial dilutions. The dissociation phase was monitored for up to 180 sec and triggered by switching from the sample solution to running buffer. The surface was regenerated by 60 sec washing with a Glycine pH 2.1 solution at a flow rate of 30 μl/min. Bulk refractive index differences were corrected by subtracting the response obtained from a goat anti human F(ab′)₂ surface. Blank injections are also subtracted (=double referencing). For calculation of apparent KD the Langmuir 1:1 model was used.
as §1

[3] = molecular target: T2, human Ang-2-RBD-Fc; experiment: SPR (Biacore T200), bispecific antibody captured by anti-human F(ab')2, Ang2-RBD-Fc as analyte, 1:1 Langmuir, apparent KD
Method: as §2, §3

| Binder | Kd [1] [nM] | koff [1] [s⁻¹] | kon [1] [M⁻¹ s⁻¹] | koff [2] [s⁻¹] | kon [2] [M⁻¹ s⁻¹] | Kd [3] [nM] |
| --- | --- | --- | --- | --- | --- | --- |
| Ang2VEGF-0456 (bispecific antibody, human IgG1, kappa, CrossMAb CH1-CL, knob-into-hole with S354C/Y349C; also called Ang2VEGF-0456-0002) light 1: QPGLTQPPSVSVAPGQTARITCGGNNIGSKSVHWYQQKPGQAPVLVVYDDSDRPSGIPERFSGSNSGNTATLTISRVEAGDEADYYCQVWDSSSDHYVFGTGTKVTVLRTVAAPSVFIFPPSDEKLKSGTASVVCLLNNFYPREAKVQWKVDNALQSGNSQESVTEQDSKDSTYSLSSTLTLSKADYEKHKVYACEVTHQGLSSPVTKSFNRGEC heavy 1: not shown light 2: DIQMTQSPSSLSASVGDRVTITCSASQDISNYLNWYQQKPGKAPKVLIYFTSSLHSGVPSRFSGSGSGTDFTLTISSLQPEDFATYYCQQYSTVPWTFGQGTKVEIKSSASTKGPSVFPLAPSSKSTSGGTAALGCLVKDYFPEPVTVSWNSGALTSGVHTFPAVLQSSGLYSLSSVVTVPSSSLGTQTYICNVNHKPSNTKVDKKVEPKSC heavy 2: not shown | 4 | 8.4e-05 | 21000 | 0.0252 | 1.16e+07 | 2 |
| Ang2VEGF-0463 (bispecific antibody, human IgG1, kappa, CrossMAb CH1-CL, knob-into-hole with S354C/Y349C; also called Ang2VEGF-0463-0002) light 1: QPGLTQPPSVSVAPGQTARITCGGNNIGSKSVHWYQQKPGQAPVLVVYDDSDRPSGIPERFSGSNSGNTATLTISRVEAGDEADYYCQVWDSSSDHYVFGTGTKVTVLRTVAAPSVFIFPPSDKRLKSGTASVVCLLNNFYPREAKVQWKVDNALQSGNSQESVTEQDSKDSTYSLSSTLTLSKADYEKHKVYACEVTHQGLSSPVTKSFNRGEC heavy 1: not shown light 2: DIQMTQSPSSLSASVGDRVTITCSASQDISNYLNWYQQKPGKAPKVLIYFTSSLHSGVPSRFSGSGSGTDFTLTISSLQPEDFATYYCQQYSTVPWTFGQGTKVEIKSSASTKGPSVFPLAPSSKSTSGGTAALGCLVKDYFPEPVTVSWNSGALTSGVHTFPAVLQSSGLYSLSSVVTVPSSSLGTQTYICNVNHKPSNTKVDKKVEPKSC heavy 2: not shown | 4 | 7.44e-05 | 17600 | 0.0281 | 9.54e+06 | 3 |
| Ang2VEGF-0461 (bispecific antibody, human IgG1, kappa, CrossMAb CH1-CL, knob-into-hole with S354C/Y349C; also called Ang2VEGF-0461-0002) light 1: QPGLTQPPSVSVAPGQTARITCGGNNIGSKSVHWYQQKPGQAPVLVVYDDSDRPSGIPERFSGSNSGNTATLTISRVEAGDEADYYCQVWDSSSDHYVFGTGTKVTVLRTVAAPSVFIFPPSDKRLKSGTASVVCLLNNFYPREAKVQWKVDNALQSGNSQESVTEQDSKDSTYSLSSTLTLSKADYEKHKVYACEVTHQGLSSPVTKSFNRGEC heavy 1: not shown light 2: DIQMTQSPSSLSASVGDRVTITCSASQDISNYLNWYQQKPGKAPKVLIYFTSSLHSGVPSRFSGSGSGTDFTLTISSLQPEDFATYYCQQYSTVPWTFGQGTKVEIKSSASTKGPSVFPLAPSSKSTSGGTAALGCLVKDYFPEPVTVSWNSGALTSGVHTFPAVLQSSGLYSLSSVVTVPSSSLGTQTYICNVNHKPSNTKVDKKVEPKSC heavy 2: not shown | 4 | 7.67e-05 | 19200 | 0.0163 | 1.07e+07 | 2 |
| Ang2VEGF-0455 (bispecific antibody, human IgG1, kappa, CrossMAb CH1-CL, knob-into-hole with S354C/Y349C; also called Ang2VEGF-0455-0002) light 1: QPGLTQPPSVSVAPGQTARITCGGNNIGSKSVHWYQQKPGQAPVLVVYDDSDRPSGIPERFSGSNSGNTATLTISRVEAGDEADYYCQVWDSSSDHYVFGTGTKVTVLRTVAAPSVFIFPPSDEKLKSGTASVVCLLNNFYPREAKVQWKVDNALQSGNSQESVTEQDSKDSTYSLSSTLTLSKADYEKHKVYACEVTHQGLSSPVTKSFNRGEC heavy 1: not shown light 2: DIQMTQSPSSLSASVGDRVTITCSASQDISNYLNWYQQKPGKAPKVLIYFTSSLHSGVPSRFSGSGSGTDFTLTISSLQPEDFATYYCQQYSTVPWTFGQGTKVEIKSSASTKGPSVFPLAPSSKSTSGGTAALGCLVKDYFPEPVTVSWNSGALTSGVHTFPAVLQSSGLYSLSSVVTVPSSSLGTQTYICNVNHKPSNTKVDKKVEPKSC heavy 2: not shown | 7 | 9.01e-05 | 12600 | 0.0227 | 1.06e+07 | 2 |

Reference: patent publication US20170129962A1 (Hoffmann-La Roche, published 2017)
